Measured values reported in US20120201792A1, “METHODS AND PRODUCTS FOR MANIPULATING HEMATOPOIETIC STEM CELLS” (The General Hospital Corporation, priority 2000, published 2012).

T1: SC-GPR (Homo sapiens, UniProt Q15391)
T1 sequence (Q15391 1-338): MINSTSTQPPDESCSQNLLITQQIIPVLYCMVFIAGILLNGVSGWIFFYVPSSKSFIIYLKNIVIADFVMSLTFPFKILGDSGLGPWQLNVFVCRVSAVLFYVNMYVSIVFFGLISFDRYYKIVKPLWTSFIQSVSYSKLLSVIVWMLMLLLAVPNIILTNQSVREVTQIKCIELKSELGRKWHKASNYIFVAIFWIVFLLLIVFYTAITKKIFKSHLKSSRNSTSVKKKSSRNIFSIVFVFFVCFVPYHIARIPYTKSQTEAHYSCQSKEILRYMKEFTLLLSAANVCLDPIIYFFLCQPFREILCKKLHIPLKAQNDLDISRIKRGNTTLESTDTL

T2: KIAA0001 receptor (Homo sapiens, UniProt Q15391)
T2 sequence (Q15391 1-338): T1 sequence (Q15391 1-338)

B1: MIP1b: known chemokine screened as potential SC-GPR ligand (protein)
chain: APMGSDPPTACCFSYTARKLPRNFVVDYYETSSLCSQPAVVFQTKRSKQVCADPSESWVQEYVYDLELN
B2: TARC: known chemokine screened as potential SC-GPR ligand (protein)
chain: ARGTNVGRECCLEYFKGAIPLRKLKTWYQTSEDCSRDAIVFVTVQGRAICSDPNNKRVKNAVKYLQSLERS

Columns and labels:
[1] = target: T1, SC-GPR; test: Intracellular calcium flux (Fura-2) in Cos-7 cells expressing SC-GPR; details: Fura-2 loaded cells expressing SC-GPR, fluorescence ratio F340/F380
[2] = target: T2, KIAA0001 receptor; details: Chambers et al., 2000 J Biol Chem; cited from earlier work

Molecule | calcium flux / activation of SC-GPR expressing cells [1] | binding to the receptor and induction of calcium flux [2]
Nc1ncnc2c1ncn2[C@@H]1O[C@H](COP(=O)(O)OP(=O)(O)OP(=O)(O)O)[C@@H](O)[C@H]1O [ATP] | failed to result in activation | –
CCCCC/C=C\C[C@@H](O)/C=C/C=C/C=C\[C@@H](O)CCCC(=O)O [LTB4] | failed to result in activation | –
CCCCCCCCCCCCCCCCOC[C@H](COP(=O)([O-])OCC[N+](C)(C)C)OC(C)=O [PAF] | failed to result in activation | –
CC(=O)N[C@H]1[C@@H](OP(=O)(O)OP(=O)(O)OC[C@H]2O[C@@H](n3ccc(=O)[nH]c3=O)[C@H](O)[C@@H]2O)O[C@H](CO)[C@@H](O)[C@@H]1O [UDP-N-acetylglucosamine] | – | bind to the receptor and induce calcium flux
O=C(O)[C@H]1O[C@H](OP(=O)(O)OP(=O)(O)OC[C@H]2O[C@@H](n3ccc(=O)[nH]c3=O)[C@H](O)[C@@H]2O)[C@H](O)[C@@H](O)[C@@H]1O [UDP-glucuronic acid] | – | bind to the receptor and induce calcium flux
IL-8: known chemokine screened as potential SC-GPR ligand | failed to result in activation | –
MCP 1: known chemokine screened as potential SC-GPR ligand | failed to result in activation | –
MCP 3: printed as "MCP 1, 3, 4"; known chemokine screened | failed to result in activation | –
MCP 4: printed as "MCP 1, 3, 4"; known chemokine screened | failed to result in activation | –
MIP1a: known chemokine screened as potential SC-GPR ligand | failed to result in activation | –
PF4: known chemokine screened as potential SC-GPR ligand | failed to result in activation | –
RANTES: known chemokine screened as potential SC-GPR ligand | failed to result in activation | –
SDF-1: known chemokine screened as potential SC-GPR ligand | failed to result in activation | –
B1 | failed to result in activation | –
B2 | failed to result in activation | –
